{"source": "the DeepSol protein solubility set"}
{"experiment": "soluble on expression in E. coli; label from the status in PepcDB or PDB records"}
{"sequence": "MPKSAKRRASQPTGAETLVVVESPAKARSIQKMLGPGYEVRASLGHVVDLPERSLGVDVERDFAPTYEVKKDKKPVVEELKRAAEGKRLLIATDPDREGEAIGWHVARLLGRDPKEPLRVEFHEITPRVVRQAVEAPRPIDQNLVDAQQARRVLDRLLGYNLSPLLSLEFRKRALSAGRVQSVALRLVVEREEAIEAFRPEEYWVLRGVFAVEGGEAPLVATLHEVEGKRLWTGQGEKEGRLHLASEAEAHALAEALRKGSYRVAQVEVRERRKAPPPPFTTSTLQQAASSRLGYTAARTMRIAQRLYEGVDLPEGTVGLITYMRTDSVRVAPEAVAAAREVIGKAFGPEYLPEAPRAYKNRREGVQDAHEAIRPTDPKRTPESVRPYLSEEEYRLYELIWRRFLASQMRDALYEQTAVTLADLEGRYAFRASGSVLRFEGYLRAWGRDAEEEEEPPVPAVPEGVPARLEEVLEERRFTEPPPRYTDASLVKTMEELGIGRPSTYAPTLETLEKRGYVARKGRTLFPTPLGRQVTAYLRERFPQVVAYEFTARMEERLDEVEEGRVPWPKVVWEFYEPFLGELAQVPKKTCPRCGRPLELKVSRYGQFLGCTGYPECTYTEPLERREAEPIGEACPKCGRPLLRKEGRYGTFIACSGYPECDYTRDDGTPTGHTCPKCGGRVLEKRSRKGRPYYKCENNACDFLSFYPLLEEACPACGWPLVKKGEKALCLNPACPEHEPSLLPAPKEAKKGRSRGKGKPPLAPPKDWEELVPFLPGLSPEERRAVEALARGEALARGEALAEEEARLARRALFKLRMRKGKARKEPVRA", "soluble on expression in E. coli": "soluble"}
{"sequence": "MGSDKIHHHHHHGIGVNSSNRLGIDNFEFIRVLGKGSFGKVMLARVKETGDLYAVKVLKKDVILQDDDVECTMTEKRILSLARNHPFLTQLFCCFQTPDRLFFVMEFVNGGDLMFHIQKSRRFDEARARFYAAEIISALMFLHDKGIIYRDLKLDNVLLDHEGHCKLADFGMCKEGICNGVTTATFCGTPDYIAPEILQEMLYGPAVDWWAMGVLLYEMLCGHAPFEAENEDDLFEAILNDEVVYPTWLHEDATGILKSFMTKNPTMRLGSLTQGGEHAILRHPFFKEIDWAQLNHRQIEPPFRPRIKSREDVSNFDPDFIKEEPVLTPIDEGHLPMINQDEFRNFSYVSPELQP", "soluble on expression in E. coli": "not soluble"}
{"sequence": "PRGSHMIILAFDIFGTVLDTSTVIQEFRNKQLEYTWLLTIMGKYVEFEEITKITLRYILKVRGEESKFDEELNKWKNLKAYEDTKYLKEISEIAEVYALSNGSINEVKQHLERNGLLRYFKGIFSAESVKEYKPSPKVYKYFLDSIGAKEAFLVSSNAFDVIGAKNAGMRSIFVNRKNTIVDPIGGKPDVIVNDFKELYEWILRYK", "soluble on expression in E. coli": "soluble"}
{"sequence": "MGSDKIHHHHHHMPTIAEKLKSRESDLTRAERQLSAAILDNYPIPGLGSITELAELAEVSTPTVARMVQKLGFSGYPEFQHALREELREIISNPVEKRAEQAPELPEGHMLNRYAVAVYDNIRATLENVNLEEFDTLCALLADTNSRVHIAGGRLSGTLAQNFYLHLQMIRRDVFMIPPRASWTHSVLDLLPGDTLILFDIRRYENATLLLAEMAHERGVKVVLFTDQWRSPIQKEATFTFAARIAVPSAWDSGVALLLLIESMIAKIQEDHWDTVKARNDELEAAFDRTRLFRKFT", "soluble on expression in E. coli": "not soluble"}
{"sequence": "MGSDKIHHHHHHMDNVPEPSSEKFRAYRQKLLDQLETSSQGERHRAQYELELMRNSHFVKVGGLLHHYHDSGPENPRGTVLLIHGWDCWWMWWHRIIRELNAAGYRTVAYDMKGHGWSENDPENRYQIADFVRDLDELIRAIGLKDLHIAAFSFGPFVALDYVNTYPNSVRSMVFFNFGYLPNSEFISKVAPATIIFIFNIMMRKLTWWLPAYIFARLVLSRNSVMMHDIKVGFESLGFCASEAIEQTAQQITAMETTQMLPDMVRAVRVPILFAAGEGDVIMTCENARKLQEMTPSGSYLCVPDCGHLITLELPQTAAEIVLQHISSNS", "soluble on expression in E. coli": "not soluble"}
{"sequence": "GLDALFERAVESVAAGLNTEYSKVLEYRPADNKFLLRAGVGWQSGLVGEAAVGAGEESQAGYTLQTEEPVVVEDLRTESRFSGPSLLLDHGVVSGISVIIGTTTEPWGVLGAHTSERRPFTKDDITFVRGVANTLTNAIEREQLEGTLRQAEQRYKTLLENFP", "soluble on expression in E. coli": "not soluble"}
{"sequence": "MTVIQTHGLTKRYGRVVAVEDLNLSVREGEVYGLLGPNGSGKTTTILMLLGLTEPTSGEARVLGFDPMREPLKVKSRVGYLPDQVGFYGELSAWENLRYTTRLLGLPDKEAEARIEEVLKRMGLWEVRDRKVAAFSRGMRQRLGLAEVLLKRPKVAILDEPTLGLDPEAAREFLDLIKGLKAEGITVLLSSHLLHQVQEVCDRVGLFHKGRLALEGTVAELAHRVLGGQYEILLEGAPGLEGALEAVEGVSRVEAEGGRYRVLATRDLRPELARLVVERGPLYALSLRQPSLDEIYAHYFKEVAHAA", "soluble on expression in E. coli": "soluble"}
{"sequence": "MKHHHHHHGKAAGVTLGEVWKRQLNMLGKQEFERYKVSDITEVDRTAARRYLKEGRTDVGISVSRGAAKIRWLHERGYLRITGRVLDLGCGRGGWSYYAAAQKEVMSVKGYTLGIEGHEKPIHMQTLGWNIVKFKDKSNVFTMPTEPSDTLLCDIGESSSNPLVERDRTMKVLENFERWKHVNTENFCVKVLAPYHPDVIEKLERLQLRFGGGIVRVPFSRNSTHEMYYISGARNNITHMVNTTSRSLLRRMTRPSGKAIIEGDVFLPTGTRSVASEAGTIDHEALKLRVDQIKAEYSKT", "soluble on expression in E. coli": "soluble"}
{"sequence": "MGSDKIHHHHHHMTNGRILFIREREFARSNVINYGMALVATAASKAFSVRAIDNNGLYRLYSHDDIAAEVEHFRPDVIGLSIITANALTSYETAEMLKRRFPDIPILAGGLHVSHQVGEALESGIDYVVRGEADLTIVPLLSALVEARDRGMPPDFTGIAGVSHGRGEAFVDGGNATLPLNLDEHSDVDFGLYDLGDFYRHPRDSLAIGSVLTQRGCPFRCTFCSDQYLSQSVRYRSIARSVDEIEDKLDRFGVNIFNIRDADFTMHNERVVEFCNELIRRGLHNRINLTIETDSFRVIPRDTLALMKQSGFSSIGFGIERLTPEIQRRIKKNISRSRIMENLKNCRELGFVISVHCLIGFSFDTMEDIAREQALFDELADQYVDIVSASIVVACPGTSEFSAVPPERSSWYLNPSAFPSRRPLYQVVRRFQYDPRHVPIYDFPPGMMERMMDFRDHFRKKTIGKRGRPLLWAYLLMLQIARLSEALYAASPRLERATFGWTLDWLETLNAIFTKLWAKRNDDRVNANHSCGQTPQP", "soluble on expression in E. coli": "not soluble"}
{"sequence": "ESPEIQVEEQSFNFGLIPEEKGSVGHSFKFRNSGTAPLLITRVMADCGCTTPTWPEEAIAPGEEAEIRVLFDPVGRSGAFVKRIRVFSNAQSSPLE", "soluble on expression in E. coli": "not soluble"}
{"sequence": "MTKSVDTLLIPGPIILSGAVQKALDVPSLGHTSPEFVSIFQRVLKNTRAVFKSAAASKSQPFVLAGSGTLGWDIFASNFILSKAPNKNVLVVSTGTFSDRFADCLRSYGAQVDVVRPLKIGESVPLELITEKLSQNSYGAVTVTHVDTSTAVLSDLKAISQAIKQTSPETFFVVDAVCSIGCEEFEFDEWGVDFALTASQKAIGAPAGLSISLCSSRFMDYALNDSKNGHVHGYFSSLRRWTPIMENYEAGKGAYFATPPVQLINSLDVALKEILEEGLHKRWDLHREMSDWFKDSLVNGLQLTSVSRYPSNMSAHGLTAVYVADPPDVIAFLKSHGVVIAGGIHKDIGPKYIRIGHMGVTACNKNLPYMKNCFDLIKLALQRKK", "soluble on expression in E. coli": "soluble"}
{"sequence": "MNPIVINRLQRKLGYTFNHQELLQQALTHRSASSKHNERLEFLGDSILSYVIANALYHRFPRVDEGDMSRMRATLVRGNTLAELAREFELGECLRLGPGELKSGGFRRESILADTVEALIGGVFLDSDIQTVEKLILNWYQTRLDEISPGDKQKDPKTRLQEYLQGRHLPLPTYLVVQVRGEAHDQEFTIHCQVSGLSEPVVGTGSSRRKAEQAAAEQALKKLELE", "soluble on expression in E. coli": "soluble"}
{"sequence": "MNSRIMFIGGVPGVGKTSISGYIARNTDIDIVLSSDYLREFLRPFAPQESHLETSVYDAWKFYGDMSDDNIIRGYLDQARPIMGGINRVIARALANGEDLIIESLYFVPDMMDEMVLKNAFLAYVYIDDPDLHRSRLEDRINYTHRNSPGSRLAAHLKEYRTIMDYSMDMARGRGIGLYSTDDYALARQRLLDDFRKFVDRR", "soluble on expression in E. coli": "not soluble"}
{"sequence": "MGSDKIHHHHHHMNAIQCETRTYEREYNTHDHSYGQMLFALHGAMEIQTPVYDTFQLEANFGLYLPPHVNHRFRAVARNEFIVVDIPARFLGDAVTTEQHVALDETWGALCHLFRGEAYQPASSQSLRPLVDYLTSKLAKKTLPASIHYMKQHFSEPLSLETLAAIEHYHPAYYSSWFKGYTGMSPSEYLQKLRVKAAKRLLGETTWSVARISIEVGYTHPSGLVRAFTKVEGMTPSAYRNTLH", "soluble on expression in E. coli": "not soluble"}
{"sequence": "MASKITQPDKYSGFLNNYSDLKETTSATGKPVLRWVDPSFDQSKYDSIVWNPITYYPVPKPSTQVGQKVLDKILNYTNTEMKEAIAQRKPLVTTAGPRSLIFRGAITGVDTSKEGLQFYEVVPVALVVAGTQMATGHRTMDTRLYFEGELIDAATNKPVIKVVRQGEGKDLNNESTPMAFENIKQVIDDMATDATMFDVNKKLEHHHHHH", "soluble on expression in E. coli": "soluble"}
{"sequence": "MRRILVLTKNILVEQTFQQQLQHLNYEVFCTNCCEETIEHELTFFNYFDAIVLSETLSQNDCLRLLGSLSSLEKPIYRRSQSMCNKREAEIWQERGIIRWLGLKDSLEDIREKIDTVDQSFAEVTAELLDDQVKKIRFTKNEQRFLKILYQHAHEGLDRDQICRLLWQKEPDASTKSQLSFVCKRVKQKFSDAGMNEEIITTYWGKGYQINEQILPYLEQTLFETAQ", "soluble on expression in E. coli": "not soluble"}
{"sequence": "MAFQQPNLQQIFSSVDKDRSGQISSDELQTALSNGTWNPFNPETCRLMIGMFDSNGDGAINFQEFQALWRYINDWTNCFRGFDTDGSGNIDKSELTNALTQFGYRLSPQFYNILMHKFDRSHSNRINFDDFIQLCVVLQTLTAAFRLEIRAKIDLEI", "soluble on expression in E. coli": "not soluble"}
{"sequence": "FTPVTKAAVINTFDGVADYLIRYKRLPNDYITKSQASALGWVASKGDLAEVAPGKSIGGDVFSNREGRLPSAGSRTWREADINYVSGFRNADRLVYSSDWLIYKTTDHYATFTRIR", "soluble on expression in E. coli": "soluble"}
{"sequence": "MGSDKIHHHHHHMASRLPPLNALRAFDASARQLSFTRAAEELFVTQAAISHQIKSLEDHLGIKLFMRKNRALLLTEEGQSYYLDIKDIFTSLHEATERLLARGAKGAITVSSQASFAIQWLVPRLTAFNSLHQDIDVRIKAVDQPENSLTEDVDIAIYYGRGRWPNIHADKLHTEYLIPVCSPLLVQENAANGKPPLLTLEDLSEHTLLHDTSRKDWKRWFKQVGVKGANVNHGPIFSHSAMVLQAALHGQGIALAYSVLAKPDIDSGRLVCPFNDVLVSKNAYFIVCRENQKDIGKITAFREWMLDMVEAEQAQITDGQIS", "soluble on expression in E. coli": "not soluble"}
{"sequence": "PHFIVECSDNIREEADLPGLFAKVNPTLAATGIFPLAGIRSRVHWVDTWQMADGQHDYAFVHMTLKIGAGRSLESRQQAGEMLFELIKTHFAALMESRLLALSFEIEELHPTLNFKQNNVHALFK", "soluble on expression in E. coli": "soluble"}
